For assay [1], the target named is vascular endothelial growth factor receptor 1 (VEGFR1) (UniProt P17948). The assay is described as follows: SPR (Biacore X), VEGFR1 immobilised on a CM5 chip per paragraph 186; four sensorgrams with fitted curves. (Surface plasmon resonance follows binding to a sensor surface in real time, without labels.)
The target is the same in assay [2]. The assay is described as follows: SPR (Biacore X), VEGFR1 immobilised on a CM5 chip per paragraph 186; compared with the linear peptide CQRPPR at 1 mM.

A value given as a limit tells only on which side of the number the result lay.

vascular endothelial growth factor receptor 1 (VEGFR1), sequence (P17948 27-756 limits assumed): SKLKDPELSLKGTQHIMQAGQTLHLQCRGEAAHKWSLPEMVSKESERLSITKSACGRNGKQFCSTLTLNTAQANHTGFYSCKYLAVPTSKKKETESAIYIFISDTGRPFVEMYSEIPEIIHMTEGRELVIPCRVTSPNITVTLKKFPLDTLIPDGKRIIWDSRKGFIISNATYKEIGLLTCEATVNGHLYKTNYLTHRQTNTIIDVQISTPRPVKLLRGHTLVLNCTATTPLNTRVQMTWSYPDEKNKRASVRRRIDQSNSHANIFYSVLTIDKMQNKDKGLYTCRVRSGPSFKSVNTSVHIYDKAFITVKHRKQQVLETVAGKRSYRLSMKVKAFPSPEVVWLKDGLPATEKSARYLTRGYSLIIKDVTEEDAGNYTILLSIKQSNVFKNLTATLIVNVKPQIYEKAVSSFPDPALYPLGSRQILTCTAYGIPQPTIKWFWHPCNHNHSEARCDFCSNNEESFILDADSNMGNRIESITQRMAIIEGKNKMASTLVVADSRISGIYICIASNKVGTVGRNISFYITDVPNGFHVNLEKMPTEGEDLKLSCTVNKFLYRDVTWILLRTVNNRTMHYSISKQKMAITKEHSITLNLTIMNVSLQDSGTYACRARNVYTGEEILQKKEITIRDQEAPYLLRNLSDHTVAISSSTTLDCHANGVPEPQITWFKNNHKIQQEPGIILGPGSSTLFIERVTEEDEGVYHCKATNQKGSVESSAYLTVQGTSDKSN

What is called Kd is a measure of binding affinity in units of concentration. Low values mean a tighter complex, high ones a looser complex. The substance “bipodal peptide drawn as CQRPPR-GGG-[W--W hairpin]-G-RIPKNR” yielded a Kd in assay [1] of 212 nM. The fold increase in affinity in assay [2] is more than 10000 fold.
